Measured values from the Immune Epitope Database (IEDB).
pKd: −log10 of the molar value.

Tests used:
HLA-B*08:01 = test: IEDB peptide-MHC binding, purified MHC/competitive/fluorescence; filed as Kd, often an IC50 or EC50 that approximates it; ≥ and ≤ were set here for values at or beyond the usual limits of such assays
HLA-B*83:01 = test: as above; details: source organism: Brucella canis ATCC 23365
HLA-B*07:02 [1] = test: as above
HLA-B*14:02 = test: as above
HLA-B*39:01 [2] = test: as above; details: source organism: Brucella canis ATCC 23365
HLA-A*68:23 = test: as above; details: source organism: Brucella canis ATCC 23365
HLA-A*30:02 [3] = test: as above
HLA-B*44:02 = test: as above
HLA-B*15:42 = test: as above; details: source organism: Brucella canis ATCC 23365
HLA-B*40:01 = test: as above
HLA-A*23:01 = test: as above
HLA-A*24:03 = test: as above; details: source organism: Brucella canis ATCC 23365
HLA-A*01:01 [4] = test: as above
HLA-B*58:01 [5] = test: as above
HLA-B*53:01 = test: as above
HLA-B*45:06 = test: as above; details: source organism: Brucella canis ATCC 23365
HLA-A*11:01 [6] = test: as above
HLA-A*30:01 = test: as above
HLA-B*27:03 = test: IEDB peptide-MHC binding, purified MHC/direct/fluorescence; filed as Kd, often an IC50 or EC50 that approximates it; ≥ and ≤ were set here for values at or beyond the usual limits of such assays; details: source organism: Brucella suis 1330
HLA-B*51:01 = test: as above; details: source organism: Brucella suis 1330
HLA-B*18:01 = test: as above
HLA-A*03:01 = test: as above
HLA-A*29:02 = test: as above; details: source organism: Brucella suis 1330
HLA-A*68:02 = test: as above
HLA-B*15:01 [7] = test: as above
HLA-A*66:01 [8] = test: as above; details: source organism: Brucella suis 1330
HLA-B*57:01 = test: as above
HLA-B*46:01 = test: as above; details: source organism: Brucella suis 1330
HLA-A*30:02 [9] = test: IEDB peptide-MHC binding, purified MHC/competitive/radioactivity; filed as Kd, often an IC50 or EC50 that approximates it; ≥ and ≤ were set here for values at or beyond the usual limits of such assays; details: source organism: Dengue virus 1 Brazil/97-11/1997
HLA-B*58:01 [10] = test: as above; details: source organism: Dengue virus 1 Brazil/97-11/1997
HLA-A*80:01 = test: IEDB peptide-MHC binding, purified MHC/direct/fluorescence; filed as Kd, often an IC50 or EC50 that approximates it; ≥ and ≤ were set here for values at or beyond the usual limits of such assays; details: source organism: Dengue virus 1 Singapore/S275/1990
HLA-B*07:02 [11] = test: as above; details: source organism: Bacillus anthracis
HLA-B*39:01 [12] = test: as above; details: source organism: Bacillus cereus H3081.97
HLA-A*26:03 = test: as above; details: source organism: Bacillus cereus H3081.97
HLA-B*48:01 = test: as above; details: source organism: Bacillus anthracis
HLA-A*02:01 = test: as above; details: source organism: Bacillus anthracis
HLA-B*73:01 = test: as above; details: source organism: Bacillus anthracis
HLA-A*01:01 [13] = test: as above; details: source organism: Bacillus anthracis
HLA-B*27:05 [14] = test: as above; details: source organism: Bacillus anthracis
HLA-B*58:01 [15] = test: as above; details: source organism: Bacillus anthracis
HLA-A*11:01 [16] = test: as above; details: source organism: Bacillus anthracis
HLA-A*69:01 = test: as above; details: source organism: Bacillus anthracis
HLA-B*15:17 = test: as above; details: source organism: Bacillus anthracis
HLA-A*31:01 = test: as above; details: source organism: Bacillus anthracis
HLA-A*26:02 = test: as above; details: source organism: Bacillus cereus H3081.97
HLA-B*15:01 [17] = test: IEDB peptide-MHC binding, purified MHC/competitive/fluorescence; filed as Kd, often an IC50 or EC50 that approximates it; ≥ and ≤ were set here for values at or beyond the usual limits of such assays; details: source organism: Escherichia coli 536
HLA-B*27:05 [18] = test: as above; details: source organism: Escherichia coli 536
HLA-A*66:01 [19] = test: as above; details: source organism: Escherichia coli 536
[20] = source organism: Brucella canis ATCC 23365
[21] = source organism: Brucella suis 1330
[22] = source organism: Bacillus anthracis
[23] = source organism: Escherichia coli 536

Sequence ETVWPFFYA has a pKd (HLA-B*08:01; [20]) of at most 5.30, a pKd (HLA-B*83:01) of at most 5.30 and a pKd (HLA-B*07:02 [1]; [20]) of at most 5.30. It also gave a pKd (HLA-B*14:02; [20]) of at most 5.30, a pKd (HLA-B*39:01 [2]) of at most 5.30 and a pKd (HLA-A*68:23) of 8.89. For the same sequence, the pKd (HLA-A*30:02 [3]; [20]) was at most 5.30, the pKd (HLA-B*44:02; [20]) was at most 5.30 and the pKd (HLA-B*15:42) was at most 5.30. It also gave a pKd (HLA-B*40:01; [20]) of at most 5.30, a pKd (HLA-A*23:01; [20]) of at most 5.30 and a pKd (HLA-A*24:03) of at most 5.30. The pKd (HLA-A*01:01 [4]; [20]) was at most 5.30, the pKd (HLA-B*58:01 [5]; [20]) was at most 5.30 and the pKd (HLA-B*53:01; [20]) was at most 5.30. The pKd (HLA-B*45:06) was at most 5.30, the pKd (HLA-A*11:01 [6]; [20]) was at most 5.30 and the pKd (HLA-A*30:01; [20]) was at most 5.30. It also gave a pKd (HLA-B*27:03) of at most 4.70, a pKd (HLA-B*51:01) of at most 4.70 and a pKd (HLA-B*18:01; [21]) of at most 4.70. It also gave a pKd (HLA-A*03:01; [21]) of at most 4.70, a pKd (HLA-A*29:02) of at most 4.70 and a pKd (HLA-A*68:02; [21]) of at least 9.00. For the same sequence, the pKd (HLA-B*15:01 [7]; [21]) was at most 4.70, the pKd (HLA-A*66:01 [8]) was 7.00 and the pKd (HLA-B*57:01; [21]) was at most 4.70. The pKd (HLA-B*46:01) was at most 4.70.

In the case of KSAAIDGEY, the pKd (HLA-A*30:02 [9]) was 6.15, the pKd (HLA-B*58:01 [10]) was 8.18 and the pKd (HLA-A*80:01) was 7.36.

Sequence PRFGSCYFL has a pKd (HLA-B*07:02 [11]) of 5.57, a pKd (HLA-B*18:01; [22]) of at most 4.70 and a pKd (HLA-B*39:01 [12]) of at most 4.70. It also gave a pKd (HLA-A*26:03) of at most 4.70, a pKd (HLA-A*03:01; [22]) of at most 4.70 and a pKd (HLA-A*68:02; [22]) of at most 4.70. It also gave a pKd (HLA-B*48:01) of at most 4.70, a pKd (HLA-A*02:01) of at most 4.70 and a pKd (HLA-B*73:01) of at most 4.70. For the same sequence, the pKd (HLA-B*15:01 [7]; [22]) was at most 4.70, the pKd (HLA-A*01:01 [13]) was at most 4.70 and the pKd (HLA-B*27:05 [14]) was at most 4.70. It also gave a pKd (HLA-B*58:01 [15]) of at most 4.70, a pKd (HLA-B*57:01; [22]) of at most 4.70 and a pKd (HLA-A*11:01 [16]) of at most 4.70. It also gave a pKd (HLA-A*69:01) of at most 4.70, a pKd (HLA-B*15:17) of at most 4.70 and a pKd (HLA-A*31:01) of at most 4.70. The pKd (HLA-A*26:02) was at most 4.70.

Sequence YQAENSTAE has a pKd (HLA-B*08:01; [23]) of at most 5.30, a pKd (HLA-B*07:02 [1]; [23]) of at most 5.30 and a pKd (HLA-B*14:02; [23]) of at most 5.30. The pKd (HLA-A*30:02 [3]; [23]) was at most 5.30, the pKd (HLA-B*44:02; [23]) was at most 5.30 and the pKd (HLA-B*40:01; [23]) was at most 5.30. For the same sequence, the pKd (HLA-A*23:01; [23]) was at most 5.30, the pKd (HLA-B*15:01 [17]) was at most 5.30 and the pKd (HLA-A*01:01 [4]; [23]) was at most 5.30. The pKd (HLA-B*27:05 [18]) was at most 5.30, the pKd (HLA-A*66:01 [19]) was at most 5.30 and the pKd (HLA-B*58:01 [5]; [23]) was at most 5.30. For the same sequence, the pKd (HLA-B*53:01; [23]) was at most 5.30, the pKd (HLA-A*11:01 [6]; [23]) was at most 5.30 and the pKd (HLA-A*30:01; [23]) was at most 5.30.
